Test results as given in the supplement of paper PMC9112550, “Optimization of the antimicrobial peptide Bac7 by deep mutational scanning” (BMC Biology, 2022).

What follows are sequences tested on Escherichia coli TOP10 (assay: shrunken log2 fold change of peptide-encoding DNA abundance (4.5 h post-induction vs induction); higher = less antimicrobial activity (less host growth inhibition)). Conditions: time post-induction: 4.5 h; library: site-saturation at positions 5, 18, 19, 20.
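Also: peptides expressed intracellularly from a pBAD plasmid library in pooled LB shake-flask culture, induced with 0.3% L-arabinose, DNA abundance read by NGS, three biological replicates, DESeq2 with apeglm shrinkage.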

**Q.** Which “shrunken log2 fold change” value does the source give for RRIRGRPPRLPRPRPRPGQNPRP here?
**A.** 0.0139

**Q.** For RRIRMRPPRLPRPRPRPQSCPRP, which “shrunken log2 fold change” value is on record?
**A.** -0.00838

**Q.** RRIRFRPPRLPRPRPRPTMVPRP was tested. Which “shrunken log2 fold change” value did it give?
**A.** -0.129

**Q.** For RRIRVRPPRLPRPRPRPCYWPRP, which “shrunken log2 fold change” value is on record?
**A.** -0.0621

**Q.** RRIRLRPPRLPRPRPRPKEIPRP was tested. Which “shrunken log2 fold change” value did it give?
**A.** -0.00121

**Q.** For RRIRTRPPRLPRPRPRPKPDPRP, which “shrunken log2 fold change” value is on record?
**A.** 0.214

**Q.** RRIRPRPPRLPRPRPRPWTVPRP was tested. Which “shrunken log2 fold change” value did it give?
**A.** -0.155

**Q.** For RRIRCRPPRLPRPRPRPKLSPRP, which “shrunken log2 fold change” value is on record?
**A.** 0.22

**Q.** For RRIRSRPPRLPRPRPRPDAQPRP, which “shrunken log2 fold change” value is on record?
**A.** 0.406

**Q.** With RRIRDRPPRLPRPRPRPNSEPRP as the sequence, how does the “shrunken log2 fold change” value read?
**A.** 0.261

**Q.** Which “shrunken log2 fold change” value does the source give for RRIRARPPRLPRPRPRPHRMPRP here?
**A.** -0.0562

**Q.** With RRIRNRPPRLPRPRPRPRWDPRP as the sequence, how does the “shrunken log2 fold change” value read?
**A.** 0.249

**Q.** For RRIRSRPPRLPRPRPRPKIAPRP, which “shrunken log2 fold change” value is on record?
**A.** 0.0525

**Q.** With RRIRDRPPRLPRPRPRPWADPRP as the sequence, how does the “shrunken log2 fold change” value read?
**A.** -0.00486

**Q.** Which “shrunken log2 fold change” value does the source give for RRIRIRPPRLPRPRPRPFQQPRP here?
**A.** -0.0967

**Q.** How did the “shrunken log2 fold change” value turn out when RRIRTRPPRLPRPRPRPRRDPRP was run?
**A.** 0.394

**Q.** Which “shrunken log2 fold change” value does the source give for RRIRERPPRLPRPRPRPKTYPRP here?
**A.** -0.771

**Q.** RRIRVRPPRLPRPRPRPLIQPRP was tested. Which “shrunken log2 fold change” value did it give?
**A.** -0.351

**Q.** Which “shrunken log2 fold change” value does the source give for RRIRRRPPRLPRPRPRPIIVPRP here?
**A.** 0.0931

**Q.** Which “shrunken log2 fold change” value does the source give for RRIRYRPPRLPRPRPRPQTKPRP here?
**A.** -0.168

**Q.** RRIRQRPPRLPRPRPRPFLVPRP was tested. Which “shrunken log2 fold change” value did it give?
**A.** 0.000414

**Q.** Which “shrunken log2 fold change” value does the source give for RRIRRRPPRLPRPRPRPWDVPRP here?
**A.** -0.149

**Q.** With RRIRERPPRLPRPRPRPTTIPRP as the sequence, how does the “shrunken log2 fold change” value read?
**A.** -0.627

**Q.** RRIRERPPRLPRPRPRPMTFPRP was tested. Which “shrunken log2 fold change” value did it give?
**A.** -0.081

**Q.** For RRIRCRPPRLPRPRPRPKQAPRP, which “shrunken log2 fold change” value is on record?
**A.** -0.0334

**Q.** With RRIRIRPPRLPRPRPRPAATPRP as the sequence, how does the “shrunken log2 fold change” value read?
**A.** 0.0455

**Q.** How did the “shrunken log2 fold change” value turn out when RRIRRRPPRLPRPRPRPYHWPRP was run?
**A.** -0.48

**Q.** RRIRQRPPRLPRPRPRPVDSPRP was tested. Which “shrunken log2 fold change” value did it give?
**A.** 0.0997

**Q.** Which “shrunken log2 fold change” value does the source give for RRIRKRPPRLPRPRPRPALAPRP here?
**A.** 0.885

**Q.** Which “shrunken log2 fold change” value does the source give for RRIRRRPPRLPRPRPRPFENPRP here?
**A.** 0.0967

**Q.** RRIRPRPPRLPRPRPRPCHNPRP was tested. Which “shrunken log2 fold change” value did it give?
**A.** 0.156

**Q.** For RRIRGRPPRLPRPRPRPIWPPRP, which “shrunken log2 fold change” value is on record?
**A.** 0.23

**Q.** With RRIRMRPPRLPRPRPRPPTKPRP as the sequence, how does the “shrunken log2 fold change” value read?
**A.** 0.508

**Q.** Which “shrunken log2 fold change” value does the source give for RRIRCRPPRLPRPRPRPFSWPRP here?
**A.** -0.141

**Q.** For RRIRPRPPRLPRPRPRPMLFPRP, which “shrunken log2 fold change” value is on record?
**A.** -0.0744

**Q.** For RRIRSRPPRLPRPRPRPLAPPRP, which “shrunken log2 fold change” value is on record?
**A.** 0.223

**Q.** RRIRNRPPRLPRPRPRPAYPPRP was tested. Which “shrunken log2 fold change” value did it give?
**A.** 0.0183

**Q.** How did the “shrunken log2 fold change” value turn out when RRIRVRPPRLPRPRPRPDINPRP was run?
**A.** -0.00784

**Q.** Which “shrunken log2 fold change” value does the source give for RRIRERPPRLPRPRPRPSKCPRP here?
**A.** -0.488

**Q.** For RRIRVRPPRLPRPRPRPEKPPRP, which “shrunken log2 fold change” value is on record?
**A.** 0.00308

**Q.** With RRIRPRPPRLPRPRPRPVLYPRP as the sequence, how does the “shrunken log2 fold change” value read?
**A.** -0.335

**Q.** For RRIRRRPPRLPRPRPRPGEYPRP, which “shrunken log2 fold change” value is on record?
**A.** 0.264

**Q.** RRIRWRPPRLPRPRPRPTHGPRP was tested. Which “shrunken log2 fold change” value did it give?
**A.** -0.0242

**Q.** How did the “shrunken log2 fold change” value turn out when RRIRGRPPRLPRPRPRPVNTPRP was run?
**A.** 0.0713

**Q.** Which “shrunken log2 fold change” value does the source give for RRIRERPPRLPRPRPRPSGGPRP here?
**A.** -0.0233

**Q.** Which “shrunken log2 fold change” value does the source give for RRIRIRPPRLPRPRPRPSDIPRP here?
**A.** -0.366

**Q.** RRIRHRPPRLPRPRPRPLFLPRP was tested. Which “shrunken log2 fold change” value did it give?
**A.** -0.612

**Q.** RRIRHRPPRLPRPRPRPPQMPRP was tested. Which “shrunken log2 fold change” value did it give?
**A.** 0.149

**Q.** RRIRCRPPRLPRPRPRPYYRPRP was tested. Which “shrunken log2 fold change” value did it give?
**A.** -0.301

**Q.** Which “shrunken log2 fold change” value does the source give for RRIRYRPPRLPRPRPRPWGWPRP here?
**A.** -0.0384

**Q.** RRIRARPPRLPRPRPRPSWHPRP was tested. Which “shrunken log2 fold change” value did it give?
**A.** 0.0482

**Q.** Which “shrunken log2 fold change” value does the source give for RRIRWRPPRLPRPRPRPKYNPRP here?
**A.** -0.558

**Q.** With RRIRMRPPRLPRPRPRPEWVPRP as the sequence, how does the “shrunken log2 fold change” value read?
**A.** 0.32

**Q.** How did the “shrunken log2 fold change” value turn out when RRIRARPPRLPRPRPRPQFYPRP was run?
**A.** -0.183

**Q.** How did the “shrunken log2 fold change” value turn out when RRIRMRPPRLPRPRPRPPFCPRP was run?
**A.** 0.0505

**Q.** RRIRQRPPRLPRPRPRPQMSPRP was tested. Which “shrunken log2 fold change” value did it give?
**A.** -0.0844

**Q.** With RRIRRRPPRLPRPRPRPDKKPRP as the sequence, how does the “shrunken log2 fold change” value read?
**A.** 0.0135

**Q.** With RRIRCRPPRLPRPRPRPERHPRP as the sequence, how does the “shrunken log2 fold change” value read?
**A.** -0.0311

**Q.** How did the “shrunken log2 fold change” value turn out when RRIRARPPRLPRPRPRPVIHPRP was run?
**A.** -0.307

**Q.** How did the “shrunken log2 fold change” value turn out when RRIRYRPPRLPRPRPRPIPDPRP was run?
**A.** 0.0657

**Q.** Which “shrunken log2 fold change” value does the source give for RRIRHRPPRLPRPRPRPGGAPRP here?
**A.** 0.311

**Q.** RRIRCRPPRLPRPRPRPWIAPRP was tested. Which “shrunken log2 fold change” value did it give?
**A.** -0.256

**Q.** How did the “shrunken log2 fold change” value turn out when RRIRKRPPRLPRPRPRPENLPRP was run?
**A.** 3.46

**Q.** Which “shrunken log2 fold change” value does the source give for RRIRCRPPRLPRPRPRPPPDPRP here?
**A.** 1.26

**Q.** How did the “shrunken log2 fold change” value turn out when RRIRFRPPRLPRPRPRPVRIPRP was run?
**A.** -0.0436

**Q.** With RRIRDRPPRLPRPRPRPVCHPRP as the sequence, how does the “shrunken log2 fold change” value read?
**A.** -0.0164

**Q.** Which “shrunken log2 fold change” value does the source give for RRIRKRPPRLPRPRPRPVPTPRP here?
**A.** 0.916

**Q.** Which “shrunken log2 fold change” value does the source give for RRIRQRPPRLPRPRPRPTRDPRP here?
**A.** -0.271

**Q.** RRIRSRPPRLPRPRPRPASEPRP was tested. Which “shrunken log2 fold change” value did it give?
**A.** -0.00793

**Q.** RRIRIRPPRLPRPRPRPEACPRP was tested. Which “shrunken log2 fold change” value did it give?
**A.** -0.064

**Q.** With RRIRYRPPRLPRPRPRPTGDPRP as the sequence, how does the “shrunken log2 fold change” value read?
**A.** 0.00498

**Q.** RRIRQRPPRLPRPRPRPTIIPRP was tested. Which “shrunken log2 fold change” value did it give?
**A.** -0.244

**Q.** RRIRQRPPRLPRPRPRPQLLPRP was tested. Which “shrunken log2 fold change” value did it give?
**A.** -0.00691

**Q.** With RRIRKRPPRLPRPRPRPLQPPRP as the sequence, how does the “shrunken log2 fold change” value read?
**A.** 0.349

**Q.** With RRIRDRPPRLPRPRPRPRPYPRP as the sequence, how does the “shrunken log2 fold change” value read?
**A.** 0.018
